Assay in all cases: 1 mL column of A4-024 coupled to agarose gel (6.36 mg/g gel); AAV capsid particles bound
The target of assay [1] is T1, AAV5 (adeno-associated virus serotype 5 (AAV5)).
T1 construct: also called adeno-associated virus serotype 5; AAV5 antigen

The target of assay [2] is T2, AAV6 (adeno-associated virus serotype 6 (AAV6)).
T2 construct: also called adeno-associated virus serotype 6

The target in assay [3] is T3, AAV2 (adeno-associated virus serotype 2 (AAV2), UniProt P03135 1-735).
T3 construct: also called adeno-associated virus serotype 2; AAV2 antigen

The target in assay [4] is T4, AAV9 (adeno-associated virus serotype 9 (AAV9)).
T4 construct: also called adeno-associated virus serotype 9; AAV9 antigen

For assay [5], the target named is T5, AAV8 (adeno-associated virus serotype 8 (AAV8)).
T5 construct: also called adeno-associated virus serotype 8; AAV8 antigen

Our source for the binding capacity values is patent publication US20260193326A1 (published 2026).

B1: A4-024 (VHH)
VHH: VQLQESGGGLVQPGGSLRLSCAASGSNFRINTMGWYRQAPGKQRELVATVTRGGSTNYADSVKGRFTISRDNPKNTVYLQMNSLRPEDTAVYYCHVDEVRESSWTTSNLWGQGTQVTVSS
As to B1, the binding capacity was determined as 4.8e+13 VP in assay [1]; 6.09e+13 VP in assay [2]; 7.65e+13 VP in assay [3]; 6.5e+13 VP in assay [4]; 5.17e+13 VP in assay [5].
